± gives the uncertainty stated by the source.
Test system: HEK293T
Experiment: plasma membrane surface immunostaining intensity (anti-HA, deep receptor scanning) (arbitrary fluorescence units); higher = higher plasma membrane expression
Conditions: GPCR class: A

Sequence	plasma membrane surface immunostaining intensity
MDTGPDQSYFSGNHWFVFSVYLLTFLVGLPLNLLALVVFVGKLQRRPVAVDVLLLNLTASDLLLLLFLPFRMVEAANGMHWPLPFILCPLSGFIFFTTIYLTALFLAAVSIERFLSVAHPLWYKTRPRLGQAGLVSVACWLLASAHCSVVYVIEFSGDISHSQGTNGTCYLEFRKDQLAILLPVRLEMAVVLFVVPLIITSYCYSRLVWILGRGGSHRRQRRVAGLLAATLLNFLVCFGPYNVSHVVGYICGESPAWRIYVTLLSTLNSCVDPFVYYFSSSGFQADFHELLRRLCGLWGQWQQESSMELKEQKGGEEQRADRPAERKTSEHSQGCGTGGQVACAES [FFAR3]	6440 ± 110
MAQQWSLQRLAGRHPQDSYEDSTQSSIFTYTNSNSTRGPFEGPNYHIAPRWVYHLTSVWMIFVVTASVFTNGLVLAATMKFKKLRHPLNWILVNLAVADLAETVIASTISIVNQVSGYFVLGHPMCVLEGYTVSLCGITGLWSLAIISWERWMVVCKPFGNVRFDAKLAIVGIAFSWIWAAVWTAPPIFGWSRYWPHGLKTSCGPDVFSGSSYPGVQSYMIVLMVTCCIIPLAIIMLCYLQVWLAIRAVAKQQKESESTQKAEKEVTRMVVVMIFAYCVCWGPYTFFACFAAANPGYAFHPLMAALPAYFAKSATIYNPVIYVFMNRQFRNCILQLFGKKVDDGSELSSASKTEVSSVSSVSPA [OPN1LW]	261 ± 14
MFGLFGLWRTFDSVVFYLTLIVGLGGPVGNGLVLWNLGFRIKKGPFSIYLLHLAAADFLFLSCRVGFSVAQAALGAQDTLYFVLTFLWFAVGLWLLAAFSVERCLSDLFPACYQGCRPRHASAVLCALVWTPTLPAVPLPANACGLLRNSACPLVCPRYHVASVTWFLVLARVAWTAGVVLFVWVTCCSTRPRPRLYGIVLGALLLLFFCGLPSVFYWSLQPLLNFLLPVFSPLATLLACVNSSSKPLIYSGLGRQPGKREPLRSVLRRALGEGAELGARGQSLPMGLL [MRGPRG]	115 ± 15
MELAVGNLSEGNASWPEPPAPEPGPLFGIGVENFVTLVVFGLIFALGVLGNSLVITVLARSKPGKPRSTTNLFILNLSIADLAYLLFCIPFQATVYALPTWVLGAFICKFIHYFFTVSMLVSIFTLAAMSVDRYVAIVHSRRSSSLRVSRNALLGVGCIWALSIAMASPVAYHQGLFHPRASNQTFCWEQWPDPRHKKAYVVCTFVFGYLLPLLLICFCYAKVLNHLHKKLKNMSKKSEASKKKTAQTVLVVVVVFGISWLPHHIIHLWAEFGVFPLTPASFLFRITAHCLAYSNSSVNPIIYAFLSENFRKAYKQVFKCHIRKDSHLSDTKESKSRIDTPPSTNCTHV [GALR1]	6490 ± 69
MTPTDFTSPIPNMADDYGSESTSSMEDYVNFNFTDFYCEKNNVRQFASHFLPPLYWLVFIVGALGNSLVILVYWYCTRVKTMTDMFLLNLAIADLLFLVTLPFWAIAAADQWKFQTFMCKVVNSMYKMNFYSCVLLIMCISVDRYIAIAQAMRAHTWREKRLLYSKMVCFTIWVLAAALCIPEILYSQIKEESGIAICTMVYPSDESTKLKSAVLTLKVILGFFLPFVVMACCYTIIIHTLIQAKKSSKHKALKVTITVLTVFVLSQFPYNCILLVQTIDAYAMFISNCAVSTNIDICFQVTQTIAFFHSCLNPVLYVFVGERFRRDLVKTLKNLGCISQAQWVSFTRREGSLKLSSMLLETTSGALSL [CCR9]	4060 ± 290

Same assay, conditions: GPCR class: A (Olfactory)

Sequence	plasma membrane surface immunostaining intensity
MAEENHTMKNEFILTGFTDHPELKTLLFVVFFAIYLITVVGNISLVALIFTHRRLHTPMYIFLGNLALVDSCCACAITPKMLENFFSENKRISLYECAVQFYFLCTVETADCFLLAAMAYDRYVAICNPLQYHIMMSKKLCIQMTTGAFIAGNLHSMIHVGLVFRLVFCGSNHINHFYCDILPLYRLSCVDPYINELVLFIFSGSVQVFTIGSVLISYLYILLTIFKMKSKEGRAKAFSTCASHFLSVSLFYGSLFFMYVRPNLLEEGDKDIPAAILFTIVVPLLNPFIYSLRNREVISVLRKILMKK [OR5K1]	194 ± 62
MCWTMPSPFTGSSTRNMESGNQSTVTEFIFTGFPQLQDGSLLYFFPLLFIYTFIIIDNLLIFSAVRLDTHLHNPMYNFISIFSFLEIWYTTATIPKMLSNLISEKKAISMTGCILQMYFFHSLENSEGILLTTMAIDRYVAICNPLRYQMIMTPRLCAQLSAGSCLFGFLILLPEIVMISTLPFCGPNQIHQIFCDLVPVLSLACTDTSMILIEDVIHAVTIIITFLIIALSYVRIVTVILRIPSSEGRQKAFSTCAGHLMVFPIFFGSVSLMYLRFSDTYPPVLDTAIALMFTVLAPFFNPIIYSLRNKDMNNAIKKLFCLQKVLNKPGG [OR6K3]	197 ± 66
MQPESGANGTVIAEFILLGLLEAPGLQPVVFVLFLFAYLVTVRGNLSILAAVLVEPKLHTPMYFFLGNLSVLDVGCISVTVPSMLSRLLSRKRAVPCGACLTQLFFFHLFVGVDCFLLTAMAYDRFLAICRPLTYSTRMSQTVQRMLVAASWACAFTNALTHTVAMSTLNFCGPNVINHFYCDLPQLFQLSCSSTQLNELLLFAVGFIMAGTPMALIVISYIHVAAAVLRIRSVEGRKKAFSTCGSHLTVVAIFYGSGIFNYMRLGSTKLSDKDKAVGIFNTVINPMLNPIIYSFRNPDVQSAIWRMLTGRRSLA [OR3A1]	125 ± 18
MSNATLLTAFILTGLPHAPGLDAPLFGIFLVVYVLTVLGNLLILLVIRVDSHLHTPMYYFLTNLSFIDMWFSTVTVPKMLMTLVSPSGRTISFHSCVAQLYFFHFLGSTECFLYTVMSYDRYLAISYPLRYTNMMTGRSCALLATGTWLSGSLHSAVQTILTFHLPYCGPNQIQHYFCDAPPILKLACADTSANEMVIFVNIGLVASGCFVLIVLSYVSIVCSILRIRTSEGRHRAFQTCASHCIVVLCFFGPGLFIYLRPGSRDALHGVVAVFYTTLTPLFNPVVYTLRNKEVKKALLKLKNGSVFAQGE [OR10G7]	315 ± 110
MDLKNGSLVTEFILLGFFGRWELQIFFFVTFSLIYGATVMGNILIMVTVTCRSTLHSPLYFLLGNLSFLDMCLSTATTPKMIIDLLTDHKTISVWGCVTQMFFMHFFGGAEMTLLIIMAFDRYVAICKPLHYRTIMSHKLLKGFAILSWIIGFLHSISQIVLTMNLPFCGHNVINNIFCDLPLVIKLACIETYTLELFVIADSGLLSFTCFILLLVSYIVILVSVPKKSSHGLSKALSTLSAHIIVVTLFFGPCIFIYVWPFSSLASNKTLAVFYTVITPLLNPSIYTLRNKKMQEAIRKLRFQYVSSAQNF [OR4L1]	549 ± 220
MSGENVTRVGTFILVGFPTAPGLQYLLFLLFLLTYLFVLVENLAIILTVWSSTSLHRPMYYFLSSMSFLEIWYVSDITPKMLEGFLLQQKRISFVGCMTQLYFFSSLVCTECVLLASMAYDRYVAICHPLRYHVLVTPGLCLQLVGFSFVSGFTISMIKVCFISSVTFCGSNVLNHFFCDISPILKLACTDFSTAELVDFILAFIILVFPLLATMLSYAHITLAVLRIPSATGCWRAFFTCASHLTVVTVFYTALLFMYVRPQAIDSRSSNKLISVLYTVITPILNPLIYCLRNKEFKNALKKAFGLTSCAVEGRLSSLLELHLQIHSQPL [OR6B3]	115 ± 11
MQPYTKNWTQVTEFVMMGFAGIHEAHLLFFILFLTMYLFTLVENLAIILVVGLDHRLRRPMYFFLTHLSCLEIWYTSVTVPKMLAGFIGVDGGKNISYADCLSQLFIFTFLGATECFLLAAMAYDRYVAICMPLHYGAFVSWGTCIRLAAACWLVGFLTPILPIYLLSQLTFYGPNVIDHFSCDASPLLALSCSDVTWKETVDFLVSLAVLLASSMVIAVSYGNIVWTLLHIRSAAERWKAFSTCAAHLTVVSLFYGTLFFMYVQTKVTSSINFNKVVSVFYSVVTPMLNPLIYSLRNKEVKGALGRVFSLNFWKGQ [OR6Q1]	392 ± 120
MNDDGKVNASSEGYFILVGFSNWPHLEVVIFVVVLIFYLMTLIGNLFIIILSYLDSHLHTPMYFFLSNLSFLDLCYTTSSIPQLLVNLWGPEKTISYAGCMIQLYFVLALGTTECVLLVVMSYDRYAAVCRPLHYTVLMHPRFCHLLAVASWVSGFTNSALHSSFTFWVPLCGHRQVDHFFCEVPALLRLSCVDTHVNELTLMITSSIFVLIPLILILTSYGAIVRAVLRMQSTTGLQKVFGTCGAHLMAVSLFFIPAMCIYLQPPSGNSQDQGKFIALFYTVVTPSLNPLIYTLRNKVVRGAVKRLMGWE [OR2J3]	184 ± 45
MKKENQSFNLDFILLGVTSQQEQNNVFFVIFLCIYPITLTGNLLIILAICADIRLHNPMYFLLANLSLVDIIFSSVTIPKVLANHLLGSKFISFGGCLMQMYFMIALAKADSYTLAAMAYDRAVAISCPLHYTTIMSPRSCILLIAGSWVIGNTSALPHTLLTASLSFCGNQEVANFYCDIMPLLKLSCSDVHFNVKMMYLGVGVFSLPLLCIIVSYVQVFSTVFQVPSTKSLFKAFCTCGSHLTVVFLYYGTTMGMYFRPLTSYSPKDAVITVMYVAVTPALNPFIYSLRNWDMKAALQKLFSKRISS [OR1A2]	207 ± 46
MNSENLTRAAVAPAEFVLLGITNRWDLRVALFLTCLPVYLVSLLGNMGMALLIRMDARLHTPMYFFLANLSLLDACYSSAIGPKMLVDLLLPRATIPYTACALQMFVFAGLADTECCLLAAMAYDRYVAIRNPLLYTTAMSQRLCLALLGASGLGGAVSAFVHTTLTFRLSFCRSRKINSFFCDIPPLLAISCSDTSLNELLLFAICGFIQTATVLAITVSYGFIAGAVIHMRSVEGSRRAASTGGSHLTAVAMMYGTLIFMYLRPSSSYALDTDKMASVFYTLVIPSLNPLIYSLRNKEVKEALRQTWSRFHCPGQGSQ [OR5C1]	177 ± 14
MQLNNNVTEFILLGLTQDPFWKKIVFVIFLRLYLGTLLGNLLIIISVKTSQALKNPMFFFLFYLSLSDTCLSTSITPRMIVDALLKKTTISFSECMIQVFSSHVFGCLEIFILILTAVDRYVDICKPLHYMTIISQWVCGVLMAVAWVGSCVHSLVQIFLALSLPFCGPNVINHCFCDLQPLLKQACSETYVVNLLLVSNSGAICAVSYVMLIFSYVIFLHSLRNHSAEVIKKALSTCVSHIIVVILFFGPCIFMYTCLATVFPMDKMIAVFYTVGTSFLNPVIYTLKNTEVKSAMRKLWSKKLITDDKR [OR4C16]	162 ± 72

Same assay, conditions: GPCR class: Taste

Sequence	plasma membrane surface immunostaining intensity
MLLCTARLVGLQLLISCCWAFACHSTESSPDFTLPGDYLLAGLFPLHSGCLQVRHRPEVTLCDRSCSFNEHGYHLFQAMRLGVEEINNSTALLPNITLGYQLYDVCSDSANVYATLRVLSLPGQHHIELQGDLLHYSPTVLAVIGPDSTNRAATTAALLSPFLVPMISYAASSETLSVKRQYPSFLRTIPNDKYQVETMVLLLQKFGWTWISLVGSSDDYGQLGVQALENQATGQGICIAFKDIMPFSAQVGDERMQCLMRHLAQAGATVVVVFSSRQLARVFFESVVLTNLTGKVWVASEAWALSRHITGVPGIQRIGMVLGVAIQKRAVPGLKAFEEAYARADKKAPRPCHKGSWCSSNQLCRECQAFMAHTMPKLKAFSMSSAYNAYRAVYAVAHGLHQLLGCASGACSRGRVYPWQLLEQIHKVHFLLHKDTVAFNDNRDPLSSYNIIAWDWNGPKWTFTVLGSSTWSPVQLNINETKIQWHGKDNQVPKSVCSSDCLEGHQRVVTGFHHCCFECVPCGAGTFLNKSDLYRCQPCGKEEWAPEGSQTCFPRTVVFLALREHTSWVLLAANTLLLLLLLGTAGLFAWHLDTPVVRSAGGRLCFLMLGSLAAGSGSLYGFFGEPTRPACLLRQALFALGFTIFLSCLTVRSFQLIIIFKFSTKVPTFYHAWVQNHGAGLFVMISSAAQLLICLTWLVVWTPLPAREYQRFPHLVMLECTETNSLGFILAFLYNGLLSISAFACSYLGKDLPENYNEAKCVTFSLLFNFVSWIAFFTTASVYDGKYLPAANMMAGLSSLSSGFGGYFLPKCYVILCRPDLNSTEHFQASIQDYTRRCGST [TAS1R1]	124 ± 5.5

— the supplement of paper PMC12458215
